In paper PMC9233197, “Neuropeptide signalling shapes feeding and reproductive behaviours in male Caenorhabditis elegans” (Life Science Alliance, 2022):
No end group written: not given here.

Target: T1, NPR-22 (Caenorhabditis elegans, UniProt Q59E83)
T1 construct: host or cells: CHO-K1 cells (CHO/mtAEQ/Gα16) transiently transfected with NPR-22 cDNA in pcDNA3.1 TOPO
T1 sequence (Q59E83 1-434): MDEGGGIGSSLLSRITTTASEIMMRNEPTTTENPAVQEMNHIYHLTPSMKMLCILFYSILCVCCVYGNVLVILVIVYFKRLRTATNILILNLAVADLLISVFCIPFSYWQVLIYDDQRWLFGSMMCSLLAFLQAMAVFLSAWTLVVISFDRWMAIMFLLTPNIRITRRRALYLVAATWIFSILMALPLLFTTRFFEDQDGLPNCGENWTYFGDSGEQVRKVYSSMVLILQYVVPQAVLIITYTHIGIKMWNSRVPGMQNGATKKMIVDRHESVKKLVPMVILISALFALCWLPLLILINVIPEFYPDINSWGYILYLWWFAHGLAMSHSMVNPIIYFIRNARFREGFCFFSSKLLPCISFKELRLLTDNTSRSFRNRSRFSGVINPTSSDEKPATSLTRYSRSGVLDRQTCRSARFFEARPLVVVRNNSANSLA
Test: In vitro GPCR activation assay (aequorin bioluminescence, CHO/mtAEQ/Gα16 cells transfected with NPR-22)
Format: cell-based
Conditions: dose–response, n = 6–8 trials
From the text: Figure 1. Neuropeptide lury-1 and its receptor npr-22 are expressed in different cells in the two sexes of C. elegans. […] In males, there is additional expression in cells in the tail (white arrows). Dashed outlines indicate worm body and position of pharyngeal bulbs in the head. Scale bar = 10 μm. (B) Identification of lury-1–expressing male tail neurons using NeuroPAL ([Tekieli et al, 2021]; [Yemini et al, 2021]). The lury-1 reporter line used here is JN2443 (Plury-1::Venus, unc-122p::mCherry). […] DX1–DX3 are annotated in the image. Nuclear fluorescence in other neurons is in pseudocolour as in [Yemini et al (2021)]. Scale bar = 10 μm. […] The corresponding EC50 values (M) for each peptide are as indicated. Line represents non-linear regression fit of a variable slope line using three parameters. n = 6–8 trials. […] Expression in male copulatory apparatus is also observed. Dashed outlines indicate worm body and position of pharyngeal bulbs in the head. Scale bar = 10 μm. […]
Cell-based activation assays were performed as described ([Beets et al, 2012]). […] Cells (25,000 cells/well) were exposed to synthetic peptides in BSA medium, and aequorin bioluminescence was recorded for 30 s on a MicroBeta LumiJet luminometer (PerkinElmer) in quadruplicate. […] EC50 values were calculated from dose–response curves, constructed using a nonlinear regression analysis, with sigmoidal dose–response equation (Prism 9.0).

Substance | activation of the receptor NPR-22 in vitro (in words)
LURY-1-1: peptide encoded by the LURY-1 precursor (luqin RYamide) of C. elegans; synthetic peptide in the assay (PALLSRY; ends and bridges not checked; UniProt Q9XW71 29-35, looked up) | activate the receptor NPR-22 in vitro
LURY-1-2: peptide encoded by the LURY-1 precursor (luqin RYamide) of C. elegans; synthetic peptide in the assay (AVLPRY; ends and bridges not checked; UniProt Q9XW71 38-43, looked up) | activate the receptor NPR-22 in vitro
